PMC3634827

Tests used:
CoREST [1] = target: CoREST (UniProt Q8CFE3); experiment: FLAG co-immunoprecipitation, immunoblot quantitated with ImageJ; conditions: NIH 3T3 cells transiently transfected; mean of two independent experiments; parent: est. 1.0; read off a plot
CoREST [2] = target: CoREST (UniProt Q8CFE3); experiment: co-immunoprecipitation of endogenous proteins (CoREST IP'ed with Lsd1), immunoblot quantitated with ImageJ; conditions: primary MEFs; mean of three independent experiments; p<0.005 vs wild type; parent: est. 1.0; read off a plot
CoREST [3] = target: CoREST (UniProt Q8CFE3); experiment: co-immunoprecipitation of endogenous proteins (Lsd1 IP'ed with CoREST), immunoblot quantitated with ImageJ; conditions: primary MEFs; mean of three independent experiments; p<0.001 vs wild type; parent: est. 1.0; read off a plot

UniProt Q8CFE3, sequence (Q8CFE3 whole entry): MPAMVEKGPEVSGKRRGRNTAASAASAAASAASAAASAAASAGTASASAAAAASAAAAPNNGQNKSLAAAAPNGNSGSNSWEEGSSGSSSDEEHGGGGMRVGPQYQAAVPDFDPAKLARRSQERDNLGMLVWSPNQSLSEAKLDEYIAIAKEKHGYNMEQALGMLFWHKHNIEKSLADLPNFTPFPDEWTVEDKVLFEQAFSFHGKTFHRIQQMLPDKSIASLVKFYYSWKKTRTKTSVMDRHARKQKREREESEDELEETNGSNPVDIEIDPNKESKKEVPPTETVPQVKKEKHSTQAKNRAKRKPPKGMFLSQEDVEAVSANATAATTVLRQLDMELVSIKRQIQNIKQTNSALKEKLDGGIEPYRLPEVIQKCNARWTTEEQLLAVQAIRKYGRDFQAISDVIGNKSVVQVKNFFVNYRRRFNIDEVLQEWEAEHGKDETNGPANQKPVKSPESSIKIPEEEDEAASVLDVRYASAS

Row | Substance | ratio to parent (CoREST [1]) | ratio to parent (CoREST [2]) | ratio to parent (CoREST [3])
1 | FLAG-tagged wild-type Lsd1 (lysine-specific demethylase 1) (from UniProt Q6ZQ88) E413G | 0.89 |  | 
2 | FLAG-tagged wild-type Lsd1 (lysine-specific demethylase 1) (from UniProt Q6ZQ88) E413G; M448V | 0.09 |  | 
3 | FLAG-tagged wild-type Lsd1 (lysine-specific demethylase 1) (from UniProt Q6ZQ88) M448V | 0.35 |  | 
4 | FLAG-tagged wild-type Lsd1 (lysine-specific demethylase 1) (from UniProt Q6ZQ88) N535A | 1.8 |  | 
5 | endogenous wild-type Lsd1 (from UniProt Q6ZQ88) E413G; M448V |  | 0.44 | 0.11
